Experimental data from paper PMC6036246, “SAV4189, a MarR-Family Regulator in Streptomyces avermitilis, Activates Avermectin Biosynthesis” (Frontiers in Microbiology, 2018).

These compounds were tested on T1, His6-SAV4189 (Streptomyces avermitilis), ORF:1042fb45 (assay: competition). Conditions: EMSA as in Luo et al. 2014 (buffer not given), 0.15-0.3 nM DIG probe; footprinting 400 ng probe in 25 ul, 30 min at 25 C.
T1 sequence: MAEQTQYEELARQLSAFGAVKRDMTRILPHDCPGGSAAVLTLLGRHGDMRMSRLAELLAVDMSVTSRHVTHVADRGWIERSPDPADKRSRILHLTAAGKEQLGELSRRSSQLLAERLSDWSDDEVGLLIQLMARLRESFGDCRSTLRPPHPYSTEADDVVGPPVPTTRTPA

Q: How did the binding turn out when “CATCACACCTCCCGTATTCGTTGCTTAGGGCAACCATAGGAAAGTTGGTTGCCGCAGGCAAACTAAATAGGGTCTTCAGGGATAAAAACTTGGCAAAGGCAAGTATTGGCAGGCGTAAAGCCGCAGGTGGGGAGGTCAGGAGCGGTCG (double strand) [4189p]” was run?
A: binds

Q: How did the binding turn out when “TTGATGACCTCGACCATGTGCACCGGGATACGGATGGTGCGGGCCTGGTCGGCCATGGCGCGGGTGATCGCCTGACGGATCCACCAGGTGGCGTACGTGGAGAACTTGTAGCCCTTGG (double strand) [hrdB]” was run?
A: no binding

Each compound was assayed against T2, SAV4189 (His6-SAV4189) (Streptomyces avermitilis, UniProt Q82FR3) (assay: EMSA, release of SAV4189 from DIG-labelled promoter probe […]p). Conditions: 62.5 nM His6-SAV4189, antibiotic in water.
T2 construct: gene SAVERM_4189; full-length, 171 residues (516-bp CDS), His6-tagged from pET-28a(+) (NdeI/EcoRI), E. coli BL21(DE3), Ni-NTA; tag removal not mentioned; MarR family said to be generally homodimeric
T2 sequence (Q82FR3 1-171): T1 sequence
Type: binding

Q: How did the “EMSA, release of SAV4189 from DIG-labelled promoter probe 4189p” value turn out when `CN[C@H]1C[C@@H](N)[C@H](O)[C@@H](O[C@@H]2O[C@H](CO)[C@H](O)[C@@H]3OC4(O[C@H]23)O[C@H]([C@@H](N)CO)[C@H](O)[C@H](O)[C@H]4O)[C@@H]1O` (stereo partly drawn) [HygB, hygromycin B] was run?
A: SAV4189-4189p complex was disrupted in dose-dependent manner by exogenous HygB and Thi

The compounds below were run on T1, His6-SAV4189 (Streptomyces avermitilis), ORF:1042fb45 (assay: EMSA). Conditions: EMSA as in Luo et al. 2014 (buffer not given), 0.15-0.3 nM DIG probe; footprinting 400 ng probe in 25 ul, 30 min at 25 C.

Q: Which binding does the source give for “AATTGCTGGCCGAAGCCCGCGCGGGTGTGCAGGTCTGAAACCGCCGGGGGTGAGGTTAGGGGGGTGGGAAAACCTAGGGGTTGGTCCCCGGGGTGGCGCCGGATAGTGTCGAAACGGCTGAAACAGCATTACTGGAGCGGTTGAGAAAAGCAATCCCAGATTCTGTGCCAACGCGGGGAGAACGAGTGGAACTGGCGGATTCCGGCGACCTTTTGGAAATATTCGAGCGTACCGAGGAAATGGCGCGGCTCGCGCATGTGCTGGCGAGTGCCGGACAGGGCGAAGGCGGTGTGGTCCTCG (double strand) [olmRIIp]” here?
A: binds

Q: Which binding does the source give for “CATCACACCTCCCGTATTCGTTGCTTAGGGCAACCATAGGAAAGTTGGTTGCCGCAGGCAAACTAAATAGGGTCTTCAGGGATAAAAACTTGGCAAAGGCAAGTATTGGCAGGCGTAAAGCCGCAGGTGGGGAGGTCAGGAGCGGTCG (double strand) [4189p]” here?
A: binds

Q: How did the binding turn out when “CGTGTTCACTTCAGAAACCTCCCTGACGAGGCCGCGACGTTGCGGCCGAGGTGGCTGGAAGTCAACTCGGCCACACGTGCGACGTCAAGAAGTAAATACTTAACGAGATGGCAACGGTGCCATGCGTTCTCTAAGTGAAGGCAGGGGTGGCCGCGGAAAGCGTGCCATCCAAAAGGGTCGAATCGCCCATCTCGCTCAACGCGAGAGCGAGCGCTCCGAGCACCTCGGCGCGGCCCCCAAGTGCCCCTGGAAGCACCGAGAGTTGAC (double strand) [xylFp]” was run?
A: no binding

Q: For “GACGACTCATATGCGGCAGGCCCTCCCCAGGACGTCGACAGCCGAAAGGCCTTTGGTTGTCCCCACAACCAGTTGTGACGAGACGACTCTATCCAGCAATCGCCCTCCCGCATATCCACTCGTCAAAGGCAACCCTCTCGGGCCATCTGTGCAGGTCAAGTGACCGGAGGGTAGCTAAGACCGTACCGCGCGGCAGTGCCCGAGCGGTGCGGCCTTGGCAACGTTGATC (double strand) [savR1p]”, which binding is on record?
A: no binding

Q: Which binding does the source give for “GACTGCCGGAACTCCATGCGCTGTGCCCTCCGGTTCGTGGTGTTACTTGGTTTTACCAAGTCAGAGCTTGGAAAGTCCAACAACATGTCTAGACTGCGTCGCATGCCACCTCGCCGAAGCTACGACCAGTACTGTTCCGCGGCCCGAGCCCTCGACGCCGTCGGTGACCGCTGGACCCTCCTGATCGTCCG (double strand) [aspB1p]” here?
A: binds

Q: For “TCATGGGATCTCCGGTGCCGAAGAGGGGACGAGAGCCACTCGGATTTTCTATGGTTAGGCTTACCTAAGTCAACGGGTTCCCGACATCCCGTCGGTAAAATCGTACCCCCGATTCCGATCAAGCCCACAGGAAAAGCCCGCCCCCCGAAGGGAGCGGGCTTTCGCGCGGCGGGCGGGACTACGGCAGCGTCAGGATGTCCGCCCCGCTGTCCGT (double strand) [hmuOp]”, which binding is on record?
A: binds

Q: For “TCCGGACTTGACTGATCTCGACAGTACTTGGCGCACTTGGCCCACTTGGGATCATTGCGGCGGTTGTTACCGCCCGTAAAGCACCATAAGCGCAGCGGGCGGGAGTTCAAACCCGATCAGCTTGGATAAGGTAAGCCTTACCTGTCAACGATCGTGAAGTCGGTGGTCCCCGCATGCCCTCGCCCGTCGCGGATGCCTACGCAAGGCTGACCGA (double strand) [2073p]”, which binding is on record?
A: binds

Q: With “TGACCCCTCCCGCCACTTCCCCCGGCACTTTCCATCGCTTCTCGCCGTGAATTGCAGAGATTCCCCACACACTTATCCCGTTATTAATTCAGAACAGCTTCCCGCATTCTTCTGCCCGCTTTCTTTCGTGCTAAACGCAAAGATTTCGCGAACACCAACCGGCTTAATTCGGGCAGGTCCCGCACGGGTCGTCCACTTGTGATCGACTCCACATCGCACCCCTTTCCTCCCGTATTTTCCGGACAAAATGGGGGTTATCGACGC (double strand) [ectAp]” as the compound, how does the binding read?
A: binds

Q: With “TTGATGACCTCGACCATGTGCACCGGGATACGGATGGTGCGGGCCTGGTCGGCCATGGCGCGGGTGATCGCCTGACGGATCCACCAGGTGGCGTACGTGGAGAACTTGTAGCCCTTGG (double strand) [hrdB]” as the compound, how does the binding read?
A: no binding
